Biological target: the molecule itself
Assay: thioflavin T fluorescence; synthetic peptides 5-50 µM in PBS, incubated 24 h at 37 °C, then 25 µM thioflavin T; fluorescence spectra

B1: Y15 peptide (peptide)
peptide: YEYKYEYKYEYKYEY
notes: de novo designed self-assembling peptide Y15; source: synthetic peptide (Fmoc solid-phase synthesis, RP-HPLC)
  binding result: binds
